B1: SEQ ID NO. 99 (peptide)
peptide: GYKLGCCGYKLCC
modifications: not checked
B2: SEQ ID NO. 85 (peptide)
peptide: WKDLCCGYKLCHPC
modifications: not checked

Target: human noradrenaline transporter (hNET) (human), P23975
Test: cell-based or functional assay

Sequence of human noradrenaline transporter (hNET) (human), P23975 (P23975 whole entry): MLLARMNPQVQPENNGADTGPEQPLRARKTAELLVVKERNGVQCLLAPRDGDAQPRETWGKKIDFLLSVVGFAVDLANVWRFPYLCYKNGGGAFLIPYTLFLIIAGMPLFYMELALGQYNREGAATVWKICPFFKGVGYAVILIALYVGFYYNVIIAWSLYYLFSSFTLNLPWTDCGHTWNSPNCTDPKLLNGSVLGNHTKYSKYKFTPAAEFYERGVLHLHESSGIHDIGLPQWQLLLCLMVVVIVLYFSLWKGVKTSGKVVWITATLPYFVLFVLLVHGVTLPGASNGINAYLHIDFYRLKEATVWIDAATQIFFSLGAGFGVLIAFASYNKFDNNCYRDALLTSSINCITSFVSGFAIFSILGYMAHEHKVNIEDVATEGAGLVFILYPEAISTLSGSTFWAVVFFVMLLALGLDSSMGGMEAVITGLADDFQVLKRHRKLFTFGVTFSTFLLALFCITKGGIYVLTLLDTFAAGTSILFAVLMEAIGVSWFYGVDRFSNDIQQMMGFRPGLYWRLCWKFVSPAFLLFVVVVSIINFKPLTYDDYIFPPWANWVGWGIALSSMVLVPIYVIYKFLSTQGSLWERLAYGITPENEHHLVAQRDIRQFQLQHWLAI

| Binder | Av IC50, inhibition of NA uptake via hNET (log M (unit not given)) |
| --- | --- |
| B1 | -6.99 |
| B2 | -7.05 |
